Results reported in patent US20210292393A1 (published 2021).

B1: antibody 357 (antibody, V domains shown)
VH: QVQLVQSGAEVKKPGSSVKVSCKASGGTFSSYAISWVRQAPGQGLEWMGRIIPILGIANYAQKFQGRVTITADKSTSTAYMELSSLRSEDTAVYYCARGPIAVAGIGPWFDPWGQGTLVTVSS
VL: QSVLTQPPSVSAAPGQKVTISCSGSSSNIGNNYVSWYQQLPGTAPKLLIYDNNKRPSGIPDRFSGSKSGTSATLGITGLQTGDEADYYCGTWDSSLSAVVFGGGTKLTVL
B2: antibody 346 (antibody, V domains shown)
VH: EVQLVQSGAEVKKPGESLKISCKGSGYSFTSYWIGWVRQMPGKGLEWMGIIYPGDSDTRYSPSFQGQVTISADKSISTAYLQWSSLKASDTAMYYCARHGPQDGYSSSWYLDYWGQGTLVTVSS
VL: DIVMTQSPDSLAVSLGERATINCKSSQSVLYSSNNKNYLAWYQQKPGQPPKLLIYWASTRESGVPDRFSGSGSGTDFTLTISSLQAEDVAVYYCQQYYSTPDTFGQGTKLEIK
B3: antibody 272 (antibody, V domains shown)
VH: QVQLVQSGAEVKKPGASVKVSCKASGYTFTTYYMHWVRQAPGQGLEWMGIINPSGGSASYAQKFQGRVTMTRDTSTSTVYMELSSLRSEDTAVYYCARDHTLVNGDYEYYYGMDVWGQGTTVTVSS
VL: SYELTQPPSVSVSPGQTARITCSGDALPKQYAYWYQQKPGQAPVSVIYKDSERPSGIPERISGSSSGTTVTLTISGVQAEDEADYYCQSADSSGTYLVFGGGTKLTVL
B4: antibody 358 (antibody, V domains shown)
VH: QVQLVESGGGVVQPGRSLRLSCAASGFNLNSYAMHWVRQASGKGLEWVSLMSYDGSIKYYADSVKGRFTVSGDNSRNTLFLQMNSLRPDDSALYYCVRGGVSGPNSFDLWGQGTTVTVSS
VL: DVVMTQSPLSLPVTLGQPASISCRSSQSLVYSDGSTYVNWFQQRPGQSPRRLIYKVSNRDSGVPDRFSGSGSGTDFALKISRVEAEDVGVYYCMQGTHWPVTFGQGTKVEIK
B5: antibody 298 (antibody, V domains shown)
VH: EVQLVESGGGLVQPGGSLRLSCAASGFTVSSNYMSWVRQAPGKGLEWVSVIYSGGSTYYADSVKGRFTISRDNSKNTLYLQMNSLRAEDTAVYYCAREEGEWEKDYYGMDVWGQGTTVTVSS
VL: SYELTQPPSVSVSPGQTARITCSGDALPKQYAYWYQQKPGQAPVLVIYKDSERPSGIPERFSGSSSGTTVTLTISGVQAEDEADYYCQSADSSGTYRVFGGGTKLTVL
B6: antibody 261 (antibody, V domains shown)
VH: QVQLVESGGGVVQPGRSLRLSCAASGFTFSSYAMHWVRQAPGKGLEWVAVISYDGSNKYYADSVKGRFTISRDNSKNTLYLQMNSLRAEDTAVYYCARDEAYYDILTGYINAPKNYYYYGMDVWGQGTTVTVSS
VL: DIQMTQSPSSLSASVGDRVTITCRASQGIRNDLGWYQQKPGKAPKRLIYAASSLQSGVPSRFSGSGSGTEFTLTISSLQPEDFATYYCLQHNSYPFTFGPGTKVDIK
B7: antibody 287 (antibody, V domains shown)
VH: QLQLQESGPGLVKPSETLSLTCTVSGGSISSSSYYWGWIRQPPGKGLEWIGSIFYSGSTYYNPSLKSRVTIFVDTSKNQFSLKLSSVTAADTAVYYCARFDYQVVDLTGFDYWGQGTLVTVSS
VL: DIQMTQSPSSLSASVGDRVTITCRASQGIRNDLGWYQQKPGKAPKRLIYAASSLQSGVPSRFSGSGSGTEFTLTIRSLQPEDFATYYCLQYNSYPLTFGGGTKVEIK
B8: antibody 356 (antibody, V domains shown)
VH: QVQLVQSGAEVKKPGASVKVSCKASGYTFTSYGISWVRQAPGQGLEWMGWISAYHGNTNYAQKLQGRVTMTTDTSTSTAYMELRSLRSDDTAVYYCARVGLWWLGHADAFDIWGQGTMVTVSS
VL: DIQMTQSPSSLSASVGDRVTITCRASQGIRNDLGWYQQKPGKAPKRLIYAASSLQSGVPSRFSGSGSGTEFTLTISSLQPEDFATYYCLQHNSYPLTFGGGTKVEIK
B9: antibody 318 (antibody, V domains shown)
VH: QVQLVESGGGVVPPGRSLSLPCAASGFSFSAYAMHWLRQAPGKGLEWVAVISYDGTVKYVADSVRGRFTISRDNSNNTLYLQMTSLRSDDTAVYYCARDLGALAAAPTVYFVHWGQGTLVTVSS
VL: SYVLTQPPSVSVAPGKTATITCAGEDIGRKSVHWYQQKPGQAPVLVIFYYSDRPSGIPDRFSGSVSGNTATLTIGRVEAGDEADYFCQVWDRTTNHVIFGGGTKVTVL
B10: antibody 305 (antibody, V domains shown)
VH: QVQLVESGGGVVQPGRSLRLSCAASGFTFSSYAMHWVRQAPGKGLEWVAVISYDGSNKYYADSVKGRFTISRDNSKNTLYLQMNSLRAEDTAVYYCAREQTSYDYVWGTLGAYYYYGMDVWGQGTTVTVSS
VL: SSELTQDPAVSVALGQTVRITCQGDSLRSYYASWYQQKPGQAPVLVIYGKNNRPSGIPDRFSGSSSGNTASLTITGAQAEDEADYYCNSRDSSGNHLVFGGGTKLTVL
B11: antibody 286 (antibody, V domains shown)
VH: QVHLVESGGGVVQPGKSLRLSCAGSGFIFSDFGMHWVRQSPGKGLEWVAVVSYDGSVTKYSDSFEGRFTISRDNSKNTLYLQMDSLRPDDTAIYYCAKGQGANLLHYWGKGILVTVSS
VL: DVVLTQSPLSLPVTLGQPASISCRSSESLVYTDGDTYLHWFHQRPGQSPRRLIYKVSNRDSGVPDRFSGSGSGTDFTLKISRVEAEDVGVYYCMQGTHWPFTFGPGTKVDIK
B12: antibody 312 (antibody, V domains shown)
VH: QVQLVQSGAEVKKPGASVKVSCKASGYTFTSYGISWVRQAPGQGLEWMGWISAYNGNTNYAQKLQGRVTMTTDTSTSTAYMELRSLRSDDTAVYYCARMLIAAAGTSRDYYGMDVWGQGTTVTVSS
VL: not shown
B13: antibody 330 (antibody, V domains shown)
VH: QVQLVESGGGVVQPGRSLRLSCAASGFTFSSYAMHWVRQAPGKGLEWVAVISYDGSNKYYADSVKGRFTISRDNSKNTLYLQMNSLRAEDTAVYYCARDFQYYDFWSGYLTVSSPTSYYGMDVWGQGTTVTVSS
VL: NFMLTQPHSVSESPGKTVTISCTGSSGSIASNYVQWYQQRPGSAPTTVIYEDNQRPSGVPDRFSGSIDSSSNSASLTISGLKTEDEADYYCQSYDSSNVVFGGGTKLTVL
B14: antibody 355 (antibody, V domains shown)
VH: QVHLVESGGGVVQPGRSLRLSCAASGFTFSSFPMHWVRQAPGKGLEWVAVISYDGGDEHYTDSVEGRFTISRDNSLNTLYLQMSSLRLEDTAVYYCARDRYDSSGYYYVSDYWGQGTLITVSS
VL: SYELTQPPSVSVSPGQTARISCSGDALPKQYAYWYQQKPGQAPVLVIYKDSERPSGIPERFSGSSSGTTVTLTISGVQAEDEADYYCQSADSRGTDPWVFGGGTKLTVL
B15: antibody 314 (antibody, V domains shown)
VH: EVQLVESGGGLVKPGGSLRLSCAASGFTLSSYSMNWVRQAPGKGLEWVSCISSSSSYIYYADSVKGRFTISRDNAKNSLYLQMNSLRAEDTAVYYCASDPLDIVVVPAARDYYYYGMDVWGQGTTVTVSS
VL: not shown
B16: antibody 268 (antibody, V domains shown)
VH: QVQLQESGPGLVKPSQTLSLTCTVSGGSISSGSYYWSWIRQPAGKGLEWIGRIYTSGSTNYNPSLKSRVTISVDTSKNQFSLKLSSVTAADTAVYYCARELVGGLLGTIDYWGQGTLVTVSS
VL: DIQLTQSPSFLSASVGDRVTITCRASQGISSYLAWYQQKPGKAPKLLIYAASTLQSGVPSRFSGSGSGTEFTLTISSLQPEDFATYYCQQLNSYPYTFGQGTKLEIK
B17: antibody 338 (antibody, V domains shown)
VH: QVQLQESGPGLVKPSETLSLTCAVSGYSISSDYYWGWIRQPPGKGLEWIGSIYHSGSTYYNPSLKSRVTISIDTSKNQFSLKLSSVTAADTAVYYCARDPGNYDILTGIFDYWGQGTLVTVSS
VL: QSALTQPASVSGSPGQSITISCTGTSSDVGVYNYVSWYQQHPGKAPKLMIYDVTNRPSGVSNRFSGSKSGNTASLTISGLQAEDEADYYCSSYTSSSTLAVYVFGTGTKVTVL
B18: antibody 311 (antibody, V domains shown)
VH: QVQLQESGPGLVKPSETLSLTCTVSGYSISSGYYWGWIRQPPGKGLEWIGSIYHSGSTYYNPSLKSRVTISVDTSKNQFSLKLSSVTAADTAVYYCAREETLGSSWYESYIDYWGQGTLVTVSS
VL: SYVLTQPPSVSVAPGKTARITCGGNNIGSKSVHWYQQKPGQAPVLVIYYDSDRPSGIPERFSGSNSGNTATLTISRVEAGDEADYYCQVWDSSSDHPRVFGGGTKLTVL
B19: antibody 302 (antibody, V domains shown)
VH: QVQLVQSGAEVRKPGASVKVSCKVSGYTLSELSMHWVRQAPGKGLEWMGGFDPEDGERMYAQKFQGRVTMTEDTSTDTAYMELSSLRSEDTAIYYCTTDLSYLWSGKLEPDYWYFALWGRGTLVTVSS
VL: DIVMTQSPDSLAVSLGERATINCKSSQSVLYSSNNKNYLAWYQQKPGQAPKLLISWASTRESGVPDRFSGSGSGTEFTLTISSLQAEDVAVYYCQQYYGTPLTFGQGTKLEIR

Tests used:
[1] = target: SARS-CoV-2 full length spike protein, V367F mutant, expressed on the surface of CHO cells (SARS-CoV-2, UniProt P0DTC2 14-1273)
[2] = target: SARS-CoV-2 full length spike protein, D614G mutant, expressed on the surface of CHO cells (SARS-CoV-2, UniProt P0DTC2 14-1273)
[3] = target: SARS-CoV-2 full length spike protein, V367F mutant (SARS-CoV-2, UniProt P0DTC2 14-1273)
[4] = target: SARS-CoV-2 full length spike protein, D614G mutant (SARS-CoV-2, UniProt P0DTC2 14-1273)

Binder | median fluorescence intensity, fold over isotype control [1] | median fluorescence intensity, fold over isotype control [2] | median fluorescence intensity, fold over isotype control [3] | median fluorescence intensity, fold over isotype control [4]
B1 | 28 fold over isotype | 5.37 fold over isotype |  | 
B2 | 7.05 fold over isotype | 8.57 fold over isotype |  | 
B3 |  |  | 40.4 fold over isotype | 79.7 fold over isotype
B4 | 38.4 fold over isotype | 8.74 fold over isotype |  | 
B5 |  |  | 35.7 fold over isotype | 66.8 fold over isotype
B6 |  |  | 59.9 fold over isotype | 87 fold over isotype
B7 |  |  | 60.9 fold over isotype | 87.4 fold over isotype
B8 | 60.4 fold over isotype | 90.8 fold over isotype |  | 
B9 | 40.3 fold over isotype | 9.92 fold over isotype |  | 
B10 |  |  | 41 fold over isotype | 78.9 fold over isotype
B11 |  |  | 28.2 fold over isotype | 6.17 fold over isotype
B12 | 11.3 fold over isotype | 24.5 fold over isotype |  | 
B13 | 22.4 fold over isotype | 56.5 fold over isotype |  | 
B14 | 8.08 fold over isotype | 20.3 fold over isotype |  | 
B15 | 19.6 fold over isotype | 30.4 fold over isotype |  | 
B16 |  |  | 8.9 fold over isotype | 8.18 fold over isotype
B17 | 33.2 fold over isotype | 7.81 fold over isotype |  | 
B18 | 29.6 fold over isotype | 59.7 fold over isotype |  | 
B19 |  |  | 26.5 fold over isotype | 45.4 fold over isotype
